We go through eight molecules from publication PMC7154858, “Transcriptional and Biochemical Characterization of Cytosolic Pyruvate Kinases in Arabidopsis thaliana” (Plants, 2020).

For series [1], the target named is T1, cytosolic pyruvate kinase 2 (cPK2, At5g56350) (Arabidopsis thaliana) (UniProt Q9FM97).
T1 sequence: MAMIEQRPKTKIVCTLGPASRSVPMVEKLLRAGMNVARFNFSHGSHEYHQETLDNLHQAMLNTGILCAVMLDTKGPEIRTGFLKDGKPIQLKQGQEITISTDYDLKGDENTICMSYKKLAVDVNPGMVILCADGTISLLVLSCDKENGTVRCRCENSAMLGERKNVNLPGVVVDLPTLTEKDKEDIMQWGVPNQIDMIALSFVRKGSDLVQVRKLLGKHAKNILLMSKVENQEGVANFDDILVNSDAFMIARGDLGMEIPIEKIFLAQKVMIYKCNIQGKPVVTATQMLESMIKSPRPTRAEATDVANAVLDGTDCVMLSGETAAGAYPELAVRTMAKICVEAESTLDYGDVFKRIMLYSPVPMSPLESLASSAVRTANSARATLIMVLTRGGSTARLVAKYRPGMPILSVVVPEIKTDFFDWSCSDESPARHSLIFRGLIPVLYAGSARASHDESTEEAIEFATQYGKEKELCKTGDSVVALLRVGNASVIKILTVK

In series [2] the target is T2, cytosolic pyruvate kinase 4 (cPK4, At2g36580) (Arabidopsis thaliana) (UniProt Q9SJQ0).
T2 sequence: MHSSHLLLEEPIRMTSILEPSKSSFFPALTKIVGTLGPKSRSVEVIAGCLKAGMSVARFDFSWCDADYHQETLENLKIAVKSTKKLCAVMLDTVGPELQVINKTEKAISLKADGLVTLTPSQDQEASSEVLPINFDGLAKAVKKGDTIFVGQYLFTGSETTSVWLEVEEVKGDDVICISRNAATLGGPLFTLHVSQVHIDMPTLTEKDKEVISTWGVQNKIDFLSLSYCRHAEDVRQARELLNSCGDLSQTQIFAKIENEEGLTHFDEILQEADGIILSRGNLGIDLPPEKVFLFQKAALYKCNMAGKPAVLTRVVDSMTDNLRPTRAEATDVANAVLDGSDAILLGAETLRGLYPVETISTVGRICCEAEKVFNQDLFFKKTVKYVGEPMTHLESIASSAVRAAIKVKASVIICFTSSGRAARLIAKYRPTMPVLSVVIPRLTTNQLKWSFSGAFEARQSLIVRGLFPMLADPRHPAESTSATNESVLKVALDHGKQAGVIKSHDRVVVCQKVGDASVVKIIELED

Substrate in series [3]: C=C(OP(=O)(O)O)C(=O)O
Put plainly: purified protein. It counts as biochemical, Arabidopsis thaliana. The conditions noted are these: co-substrate ADP, 10 mM MgCl2, 50 mM KCl, 5% PEG 200, pH 7.5, 25 °C.

Substrate in series [4]: Nc1ncnc2c1ncn2[C@@H]1O[C@H](COP(=O)(O)OP(=O)(O)O)[C@@H](O)[C@H]1O
Put plainly: purified protein. It counts as biochemical, Arabidopsis thaliana. The conditions noted are these: co-substrate PEP, 10 mM MgCl2, 50 mM KCl, 5% PEG 200, pH 7.5, 25 °C.

Regarding “cytosolic pyruvate kinase 3 (cPK3) (from UniProt Q9FFP6 1-510) (enzyme)”, the specific pyruvate kinase activity (LDH-coupled assay, substrate saturating conditions) of a mixture of equal ratios of cPK2 and cPK3, compared to the single enzymes in series [1] turned out to be 20 % increase. For the same molecule, in series [2], the specific pyruvate kinase activity (LDH-coupled assay, substrate saturating conditions) of a mixture of equal ratios of cPK4 and cPK3, compared to the single enzymes is 20 % increase.

B1: cPK2 (Arabidopsis thaliana) (protein)
chain: T1 sequence
notes: full-length cDNA in pET16b, N-terminal His tag (6x in Results, 5x in Methods), E. coli BLR21, Ni-NTA; primer begins MAMIEQ
Regarding B1, in the series “purified protein [3]”, the Km (usually the concentration of substrate that gives half-maximal velocity) was determined as 760 µM and the kcat (in general, the maximal rate divided by the concentration of active sites) is 3.05 s⁻¹. Moreover, in “purified protein [4]”, the Km is 30 µM and the catalytic constant (kcat) turned out to be 3.05 s⁻¹.

B2: cPK4 (Arabidopsis thaliana) (protein)
chain: T2 sequence
notes: full-length cDNA in pET16b, N-terminal His tag (6x in Results, 5x in Methods), E. coli BLR21, Ni-NTA; primer begins MHSSHL
Consider B2, for which, in “purified protein [3]”, the Km came to 170 µM and the kcat worked out at 4.0 s⁻¹. Further, in the series “purified protein [4]”, the Km was 70 µM and the kcat was found to be 4.0 s⁻¹.

B3: cytosolic pyruvate kinase 5 (cPK5, At3g52990) (enzyme)
chain: MHSSHLLLEEPIRMASILEPSKSSFFPALTKIVGTLGPKSRSVEALSGCLKAGMSVARFDFSWGDADYHQETLDNLKVAVRSTKKLCAVMLDTVGPELQVINKSEKAITLKADGLVTLTPNQDQEASSEVLPINFNGLAKAVKKGDTIFVGQYLFTGSETTSVWLEVDEVKGDDVICLSRNAATLAGSLFTLHSSQVHIDLPTLTEKDKEVISTWGVQNKIDFLSLSYCRHAEDVRQTREMLKKLGDLSQTQIFAKIENVEGLTHFDEILQEADGIILSRGNLGIDLPPEKVFLFQKAALYKCNMAGKPAVLTRVVDSMTDNLRPTRAEATDVANAVLDGSDAILLGAETLRGLYPVETISTVGRICAEAEKVFNQDLYFKKTVKYVGEPMTHLESIASSAVRAAIKVKASVIICFTSSGRAARLIAKYRPTMPVISVVIPRVKTNQLKWSFSGAFEARQSLIVRGLFPMLADPRHPAESTSATNESVLKVALDHGKHAGVIKSHDRVVVCQKVGDASVVKIIELED
For the molecule B3, the specific pyruvate kinase activity (LDH-coupled assay, substrate saturating conditions) of a batch with equal ratios of cPK4 and cPK5, compared to cPK4 alone in series [2] is 180 % increase.

B4: cPK5 (Arabidopsis thaliana) (protein)
chain: B3 chain
notes: as for B2
Turning to B4, in the series “purified protein [3]”, the Michaelis constant (Km) came to 50 µM and the kcat was found to be 6.68 s⁻¹. In “purified protein [4]”, the Km came to 340 µM and the turnover number (kcat) came to 6.68 s⁻¹.

B5: cytosolic pyruvate kinase 1 (cPK1, At5g08570) (enzyme)
chain: MSNIDIEGILKELPNDGRIPKTKIVCTLGPASRTVSMIEKLLKAGMNVARFNFSHGSHEYHQETLDNLRSAMHNTGILAAVMLDTKGPEIRTGFLKDGNPIQLKEGQEITITTDYDIQGDESTISMSYKKLPLDVKPGNTILCADGSISLAVLSCDPESGTVRCRCENSAMLGERKNVNLPGVVVDLPTLTDKDIEDILGWGVPNSIDMIALSFVRKGSDLVNVRKVLGSHAKSIMLMSKVENQEGVINFDEILRETDAFMVARGDLGMEIPIEKIFLAQKLMIYKCNLAGKPVVTATQMLESMIKSPRPTRAEATDVANAVLDGTDCVMLSGESAAGAYPEIAVKVMAKICIEAESSLDYNTIFKEMIRATPLPMSPLESLASSAVRTANKARAKLIIVLTRGGSTANLVAKYRPAVPILSVVVPVMTTDSFDWSCSDESPARHSLIYRGLIPMLAEGSAKATDSEATEVIIEAALKSATQRGLCNRGDAIVALHRIGAASVIKICVVK
In the case of B5, the specific pyruvate kinase activity (LDH-coupled assay, substrate saturating conditions) of a mixture of equal ratios of cPK1 and cPK2, compared to cPK2 alone in series [1] turned out to be 70 % increase. Also, the specific pyruvate kinase activity (LDH-coupled assay, substrate saturating conditions) of a mixture of equal ratios of cPK1 and cPK4, normalised to cPK4 alone in series [2] was 75 % increase.

B6: cPK1 (Arabidopsis thaliana) (protein)
chain: B5 chain
notes: full-length cDNA in pET16b, N-terminal His tag (6x in Results, 5x in Methods), E. coli BLR21, Ni-NTA; primer begins MSNIDIEG
B6: in “purified protein [3]”, the Km is 60 µM and the kcat was found to be 1.53 s⁻¹. In addition, in the series “purified protein [4]”, the Km turned out to be 150 µM and the kcat was determined as 1.53 s⁻¹.

B7: cPK3 (Arabidopsis thaliana) (protein)
chain: MSNIDIEGILKELPNDGRTPKTKIVCTLGPASRSVTMIEKLLKAGMNVARFNFSHGSHEYHQETLDNLRTAMQNTGILAAVMLDTKGPEIRTGFLKDGNPIQLKEGQEITITTDYDIKGDEKTISMSYKKLPVDVKPGNTILCADGSISLAVVSCDPNAGTVICRCENTAMLGERKNVNLPGVVVDLPTLTDKDVEDILKWGVPNNIDMIALSFVRKGSDLVNVRKVLGSHSKSIMLMSKVENQEGVLNFDEILRETDAFMVARGDLGMEIPIEKIFLAQKMMIYKCNLAGKPVVTATQMLESMIKSPRPTRAEATDVANAVLDGTDCVMLSGESAAGAYPEIAVKTMAKICIEAESSLDYNTIFKEMIRATPLPMSTLESLASSAVRTANKAKAKLIIVLTRGGTTAKLVAKYRPAVPILSVVVPVFTSDTFNWSCSDESPARHSLIYRGLIPVLGEGSAKATDSESTEEIIESALKSATEKGLCNHGDAVVALHRIGAASVIKICVVK
notes: printed locus At5g56350 duplicates cPK2 (apparent misprint); primer begins MSNIDIE, unlike cPK2; full-length cDNA in pET16b, N-terminal His tag (6x/5x), E. coli BLR21, Ni-NTA
As for B7, the Km in the series “purified protein [3]” amounted to 170 µM; in the series “purified protein [4]” it was 140 µM. Also, the turnover number (kcat) in the series “purified protein [3]” and in “purified protein [4]” was 2.4 s⁻¹ each time.
